From the supplement of paper PMC7877785
± gives the uncertainty stated by the source.

Assay: self-splicing fitness, log relative to wild type (ln ratio); higher = more splicing; Tetrahymena group I intron in knt gene, E. coli kanamycin selection, DiMSum; sequences stand for … in CUCUCU…GGAGGGAAAAGUUAUCAGGCAUGCACCUGGUAGCUAGUCUUUAAACCAAUAGAUUGCAUCGGUUUAAAAGGCAAGACCGUCAAAUUGCGGGAAAGGGGUCAACAGCCGUUCAGUACCAAGUCUCAGGGGAAACUUUGAGAUGGCCUUGCAAAGGGUAUGGUAAUAAGCUGACGGACAUGGUCCUAACCACGCAGCCAAGUCCUAAGUCAACAGAUCUUCUGUUGAUAUGGAUGCAGUUCACAGACUAAAUGUCGGUCGGGGAAGAUGUAUUCUUCUCAUAAGAUAUAGUCGGACCUCUCCUUAAUGGGAGCUAGCGGAUGAAGUGAUGCAACACUGGAGCCGCUGGGAACUAAUUUGUAUGCGAAAGUAUAUUGAUUAGUUUUGGAGUACUCGUGGUCG
Outline: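 A randomised library covering all eight P1ex-region intron nucleotides was built with the intron in the knt kanamycin-resistance gene on pET-22b(+) and held in E. coli BL21(DE3). Cells were grown overnight at 37°C or 30°C on LB agar, with or without 25 μg/mL kanamycin, plus 100 μg/mL carbenicillin, 50 μM IPTG and 0.2% rhamnose, and pooled colonies were amplicon-sequenced on an Illumina HiSeq 2500. DiMSum fitness is the error-weighted combination of wild-type-normalised replicate fold changes, kanamycin versus none.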

Sequence	self-splicing fitness (ln) (30 °C)	self-splicing fitness (ln) (37 °C)
GAUAAGCAAUAUUACGGCAC	-0.252 ± 0.15	-0.637 ± 0.17
GGCGAGCAAUAUUACGAUAU	-2.12 ± 0.12	-0.859 ± 0.12
ACGUAGCAAUAUUACGCAUA	-1.82 ± 0.13	-1.2 ± 0.12
UGGGAGCAAUAUUACGGAAA	-2.04 ± 0.31	–
GAUCAGCAAUAUUACGCGGU	-2.98 ± 0.16	-1.85 ± 0.24
CCGCAGCAAUAUUACGUGAC	-4.7 ± 0.39	-1.96 ± 0.26
GCGGAGCAAUAUUACGGUAC	–	-2.04 ± 0.36
GAAAAGCAAUAUUACGUAAA	-2.4 ± 0.13	-0.992 ± 0.14
UCCCAGCAAUAUUACGGCUU	-2.62 ± 0.14	-1.65 ± 0.17
UGGUAGCAAUAUUACGGCGA	-0.171 ± 0.19	0.49 ± 0.15
GUCCAGCAAUAUUACGGGGU	-3.62 ± 0.19	-2.65 ± 0.15
CCACAGCAAUAUUACGGUUC	-3.39 ± 0.18	-2.27 ± 0.19
UGAAAGCAAUAUUACGUUAU	-3.73 ± 0.19	-1.76 ± 0.11
CUAUAGCAAUAUUACGGAGG	-2.7 ± 0.17	0.224 ± 0.16
UUCGAGCAAUAUUACGGGGG	-2.88 ± 0.3	-2.23 ± 0.42
ACCCAGCAAUAUUACGGACU	-0.261 ± 0.044	0.0991 ± 0.059
GUAUAGCAAUAUUACGUCGC	-3.04 ± 0.25	-1.65 ± 0.2
AUCUAGCAAUAUUACGUUCC	-1.16 ± 0.18	-1.47 ± 0.25
UCCGAGCAAUAUUACGUUCU	-3.44 ± 0.29	-2.62 ± 0.26
AUGGAGCAAUAUUACGUAUA	-1.75 ± 0.45	-2.02 ± 0.36
CUGAAGCAAUAUUACGGCCA	-2.42 ± 0.17	-2.69 ± 0.34
GUGGAGCAAUAUUACGGCGC	-1.42 ± 0.27	-0.0496 ± 0.26
GGAAAGCAAUAUUACGGUUG	–	-1.2 ± 0.26
UAUCAGCAAUAUUACGCCCC	1 ± 0.34	-1.06 ± 0.41
AACUAGCAAUAUUACGGAGU	-2.95 ± 0.13	-1.42 ± 0.13

Sequence	self-splicing fitness (ln) (30 °C)	self-splicing fitness (ln) (37 °C)
UUAGAGCAAUAUUACGAUAG	-0.594 ± 0.1	-0.147 ± 0.14
CUUUAGCAAUAUUACGCCUC	–	-1.99 ± 0.43
UCGCAGCAAUAUUACGCCUU	-1.44 ± 0.12	-0.631 ± 0.15
CAGCAGCAAUAUUACGAAAA	-2.36 ± 0.2	-2.26 ± 0.28
ACAUAGCAAUAUUACGGUCA	-0.873 ± 0.13	0.165 ± 0.13
UAAAAGCAAUAUUACGCUCA	-0.334 ± 0.11	0.128 ± 0.12
GCGUAGCAAUAUUACGUUAG	-3.92 ± 0.22	-2.47 ± 0.23
UGAAAGCAAUAUUACGGUAC	-3.27 ± 0.32	-2.07 ± 0.24
GUGUAGCAAUAUUACGUUCU	-0.842 ± 0.09	0.00858 ± 0.11
AUACAGCAAUAUUACGUUAC	-3.94 ± 0.25	-2.79 ± 0.27
GAGUAGCAAUAUUACGACGG	-2.74 ± 0.2	-1.57 ± 0.25
GUUUAGCAAUAUUACGGACG	-1.76 ± 0.15	-0.693 ± 0.15
UAGAAGCAAUAUUACGAAAA	-2.69 ± 0.2	-2.02 ± 0.17
AUACAGCAAUAUUACGAUGC	-1.75 ± 0.11	-1.17 ± 0.16
CUAAAGCAAUAUUACGGGGC	-2.86 ± 0.36	-2.78 ± 0.28
GGUUAGCAAUAUUACGCCUU	-1.48 ± 0.11	-0.406 ± 0.14
AGGAAGCAAUAUUACGGUGC	-3.36 ± 0.21	-2.51 ± 0.2
UGUGAGCAAUAUUACGAGCU	-2.7 ± 0.26	-2.14 ± 0.41
UGACAGCAAUAUUACGGAGG	-4.41 ± 0.29	-3.93 ± 0.21
CUAUAGCAAUAUUACGACAC	-2.95 ± 0.34	-1.88 ± 0.28
GAGUAGCAAUAUUACGGUGA	-1.93 ± 0.16	-1.62 ± 0.14
CUACAGCAAUAUUACGAGCG	-0.282 ± 0.076	-0.442 ± 0.1
UACAAGCAAUAUUACGUGGA	-2.82 ± 0.15	-2.27 ± 0.11
UCCGAGCAAUAUUACGUUAC	-3.25 ± 0.43	-1.63 ± 0.43
